Legend:
BATF3;CEBPA = BATF3;CEBPA (human;human, UniProt Q9NR55;P49715 ;, |); assay: EMSA-FRET; heterodimer; EMSA-FRET: 50 nM each labeled protein, 10 nM DNA, 50 mM potassium phosphate pH 7.4, 150 mM KCl, 0.1% BSA, 0.1% Tween-20, 5 ng/ul poly(dI-dC), 0.5 mM TCEP; 37 C; conditions: protein: recombinant;recombinant; fluorescein or TAMRA; chain copies: 2;2; label: 5' TYE 665; blunt
BATF3 = molecular target: T1, BATF3 (human, UniProt Q9NR55); assay: EMSA-FRET; homodimer; EMSA-FRET: 50 nM each labeled protein, 10 nM DNA, 50 mM potassium phosphate pH 7.4, 150 mM KCl, 0.1% BSA, 0.1% Tween-20, 5 ng/ul poly(dI-dC), 0.5 mM TCEP; 37 C; conditions: protein: recombinant; fluorescein or TAMRA; chain copies: 2; label: 5' TYE 665; blunt
T1 sequence: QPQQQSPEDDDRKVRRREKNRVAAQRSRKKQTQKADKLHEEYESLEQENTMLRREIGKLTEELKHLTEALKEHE

BATF3;JUN [1] = molecular target: T2, BATF3;JUN (human;human, UniProt Q9NR55;P05412 ;, |); assay: EMSA-FRET; heterodimer; EMSA-FRET: 50 nM each labeled protein, 10 nM DNA, 50 mM potassium phosphate pH 7.4, 150 mM KCl, 0.1% BSA, 0.1% Tween-20, 5 ng/ul poly(dI-dC), 0.5 mM TCEP; 37 C; conditions: protein: recombinant;recombinant; fluorescein or TAMRA; chain copies: 2;2; label: 5' TYE 665; blunt
T2 sequence (P05412 243-316, one chain of several): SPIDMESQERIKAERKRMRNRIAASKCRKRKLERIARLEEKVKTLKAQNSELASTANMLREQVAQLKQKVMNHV

XBP1 [2] = molecular target: T3, XBP1 (human, UniProt P17861); assay: EMSA-FRET; homodimer; comparable to CRE; EMSA-FRET: 50 nM each labeled protein, 10 nM DNA, 50 mM potassium phosphate pH 7.4, 150 mM KCl, 0.1% BSA, 0.1% Tween-20, 5 ng/ul poly(dI-dC), 0.5 mM TCEP; 37 C; conditions: protein: recombinant; fluorescein or TAMRA; chain copies: 2; label: 5' TYE 665; blunt
T3 sequence: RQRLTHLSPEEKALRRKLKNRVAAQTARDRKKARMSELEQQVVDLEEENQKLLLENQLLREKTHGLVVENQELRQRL

ATF2;BATF3 [3] = molecular target: T4, ATF2;BATF3 (human;human, UniProt P15336;Q9NR55 ;, |); assay: EMSA-FRET; heterodimer; comparable to CRE; EMSA-FRET: 50 nM each labeled protein, 10 nM DNA, 50 mM potassium phosphate pH 7.4, 150 mM KCl, 0.1% BSA, 0.1% Tween-20, 5 ng/ul poly(dI-dC), 0.5 mM TCEP; 37 C; conditions: protein: recombinant;recombinant; fluorescein or TAMRA; copies: 1;1; label: 5' TYE 665; blunt
T4 sequence 1: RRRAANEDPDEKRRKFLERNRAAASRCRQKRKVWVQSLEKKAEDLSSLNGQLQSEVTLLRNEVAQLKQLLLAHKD
T4 sequence 2: T1 sequence

JUN [4] = molecular target: T5, JUN (human, UniProt P05412); assay: EMSA-FRET; homodimer; no detectable affinity; EMSA-FRET: 50 nM each labeled protein, 10 nM DNA, 50 mM potassium phosphate pH 7.4, 150 mM KCl, 0.1% BSA, 0.1% Tween-20, 5 ng/ul poly(dI-dC), 0.5 mM TCEP; 37 C; conditions: protein: recombinant; fluorescein or TAMRA; chain copies: 2; label: 5' TYE 665; blunt
T5 sequence (P05412 243-316): as the sequence (P05412 243-316, one chain of several) above

ATF3;CEBPA = ATF3;CEBPA (human;human, UniProt P18847;P49715 ;, |); assay: EMSA-FRET; heterodimer; EMSA-FRET: 50 nM each labeled protein, 10 nM DNA, 50 mM potassium phosphate pH 7.4, 150 mM KCl, 0.1% BSA, 0.1% Tween-20, 5 ng/ul poly(dI-dC), 0.5 mM TCEP; 37 C; conditions: protein: recombinant;recombinant; fluorescein or TAMRA; chain copies: 2;2; label: 5' TYE 665; blunt
Chain of ATF3;CEBPA (P49715 273-345, one chain of several): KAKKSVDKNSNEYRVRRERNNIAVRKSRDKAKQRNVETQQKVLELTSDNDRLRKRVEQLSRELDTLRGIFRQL

CEBPG = molecular target: T6, CEBPG (human, UniProt P53567); assay: EMSA-FRET; homodimer; EMSA-FRET: 50 nM each labeled protein, 10 nM DNA, 50 mM potassium phosphate pH 7.4, 150 mM KCl, 0.1% BSA, 0.1% Tween-20, 5 ng/ul poly(dI-dC), 0.5 mM TCEP; 37 C; conditions: protein: recombinant; fluorescein or TAMRA; chain copies: 2; label: 5' TYE 665; blunt
T6 sequence: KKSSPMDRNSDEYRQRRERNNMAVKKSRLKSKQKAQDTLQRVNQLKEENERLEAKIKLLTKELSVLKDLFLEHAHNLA

JUN [5] = molecular target: T5, JUN; assay: as above; conditions: protein: recombinant; fluorescein or TAMRA; chain copies: 2; label: 5' TYE 665; blunt
ATF3 = molecular target: T7, ATF3 (human, UniProt P18847); assay: as above; conditions: protein: recombinant; fluorescein or TAMRA; chain copies: 2; label: 5' TYE 665; blunt
T7 sequence: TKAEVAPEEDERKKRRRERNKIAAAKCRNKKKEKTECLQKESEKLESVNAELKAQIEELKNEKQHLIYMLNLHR

XBP1 [6] = molecular target: T3, XBP1; assay: EMSA-FRET; homodimer; comparable to CRE-L; EMSA-FRET: 50 nM each labeled protein, 10 nM DNA, 50 mM potassium phosphate pH 7.4, 150 mM KCl, 0.1% BSA, 0.1% Tween-20, 5 ng/ul poly(dI-dC), 0.5 mM TCEP; 37 C; conditions: protein: recombinant; fluorescein or TAMRA; chain copies: 2; label: 5' TYE 665; blunt
ATF2;BATF3 [7] = molecular target: T4, ATF2;BATF3; assay: EMSA-FRET; heterodimer; comparable to CRE-L; EMSA-FRET: 50 nM each labeled protein, 10 nM DNA, 50 mM potassium phosphate pH 7.4, 150 mM KCl, 0.1% BSA, 0.1% Tween-20, 5 ng/ul poly(dI-dC), 0.5 mM TCEP; 37 C; conditions: protein: recombinant;recombinant; fluorescein or TAMRA; copies: 1;1; label: 5' TYE 665; blunt
BATF3;JUN [8] = molecular target: T2, BATF3;JUN; assay: as above; conditions: protein: recombinant;recombinant; fluorescein or TAMRA; chain copies: 2;2; label: 5' TYE 665; blunt
ATF3;CEBPG = molecular target: T8, ATF3;CEBPG (human;human, UniProt P18847;P53567 ;, |); assay: EMSA-FRET; heterodimer; EMSA-FRET: 50 nM each labeled protein, 10 nM DNA, 50 mM potassium phosphate pH 7.4, 150 mM KCl, 0.1% BSA, 0.1% Tween-20, 5 ng/ul poly(dI-dC), 0.5 mM TCEP; 37 C; conditions: protein: recombinant;recombinant; fluorescein or TAMRA; chain copies: 2;2; label: 5' TYE 665; blunt
T8 sequence 1: T7 sequence
T8 sequence 2: T6 sequence

Chain of BATF3;CEBPA (P49715 273-345, one chain of several): as the sequence (P49715 273-345, one chain of several) above

B1: CREA/CAAT (CRE-L-CAAT) (dsDNA)
DNA 1: GAGTCCGCCACGCAATCCGTAG
DNA 2: CTACGGATTGCGTGGCGGACTC
binding result (BATF3;CEBPA): binds

B2: CRE-L (dsDNA)
DNA 1: GAGTCCATGACGTGGCCCGTAG
DNA 2: CTACGGGCCACGTCATGGACTC
binding result (BATF3): no binding
binding result (BATF3;JUN [1]): binds
binding result (XBP1 [2]): binds
binding result (ATF2;BATF3 [3]): binds
binding result (JUN [4]): no binding

B3: AP1/CAAT (TRE-CAAT) (dsDNA)
DNA 1: GAGTCCATGAGCAATCCGTAG
DNA 2: CTACGGATTGCTCATGGACTC
binding result (ATF3;CEBPA): binds

B4: CAAT (dsDNA)
DNA 1: GAGTCCATTGCGCAATCCGTAG
DNA 2: CTACGGATTGCGCAATGGACTC
binding result (CEBPG): binds

B5: CRE (dsDNA)
DNA 1: GAGTCCATGACGTCATCCGTAG
DNA 2: CTACGGATGACGTCATGGACTC
binding result (JUN [5]): binds
binding result (BATF3): binds
binding result (ATF3): binds
binding result (XBP1 [6]): binds
binding result (ATF2;BATF3 [7]): binds
binding result (BATF3;JUN [8]): binds

B6: CRE/CAAT (dsDNA)
DNA 1: GAGTCCATGACGCAATCCGTAG
DNA 2: CTACGGATTGCGTCATGGACTC
binding result (ATF3;CEBPG): binds

— PMC5349851, “Combinatorial bZIP dimers display complex DNA-binding specificity landscapes”
